Experimental data taken from patent US20140112926A1.

What was measured:
[1] = molecular target: GST-tagged version of human FcγRIIIA (human) (UniProt P08637); assay: AlphaLISA vs biotin-huIgG, supernatant, round 1
[2] = molecular target: GST-tagged version of human FcγRIIIA (human) (UniProt P08637); assay: AlphaLISA vs biotin-huIgG, supernatant, round 3
[3] = molecular target: GST-tagged version of human FcγRIIIA (human) (UniProt P08637); assay: AlphaLISA vs biotin-huIgG, supernatant, round 2

Sequence of GST-tagged version of human FcγRIIIA (human) (P08637 17-208 limits assumed): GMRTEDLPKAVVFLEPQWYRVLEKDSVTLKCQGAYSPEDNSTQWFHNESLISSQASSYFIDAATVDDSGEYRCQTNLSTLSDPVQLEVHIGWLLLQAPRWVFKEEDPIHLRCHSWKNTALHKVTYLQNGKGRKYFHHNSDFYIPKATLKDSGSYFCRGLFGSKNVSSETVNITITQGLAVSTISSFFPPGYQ

Substance | % inhibition [1] [%] | Alpha signal [1] | % inhibition [2] [%] | Alpha signal [2] | % inhibition [3] [%] | Alpha signal [3]
scFv-Fc/Fc, T307P in dummy Fc (Fc fusion) | 75 | 19000 | 82.1 | 14100 | 75.1 | 20000
scFv-Fc/Fc, T307S in scFv-Fc (Fc fusion) | 41.3 | – | 34.6 | 51400 | 42.1 | –
scFv-Fc/Fc, V302Q in dummy Fc (Fc fusion) | 47 | 40300 | 57.4 | 33400 | 55.3 | 35900
scFv-Fc/Fc, Y296L in scFv-Fc (Fc fusion) | 23.1 | 58500 | 18.2 | 64300 | 24.7 | 60600
scFv-Fc/Fc, Y296W in scFv-Fc (Fc fusion) | 66.7 | 25300 | 68.5 | 24800 | 72.9 | 21800
scFv-Fc/Fc, no substitution (charge pair mutations only) (Fc fusion) | 0 | 76000 | 0 | 78600 | 0 | 80400
